From patent US20240350544A1 (Takeda / Millennium, published 2024) come the findings set out here.

In assay [1] the target is Bio-cyBCMA-His (biotinylated cynomolgus BCMA with His tag) (cynomolgus). The assay can be described thus: ELISA, scFv periplasmic extract on biotinylated cynomolgus BCMA-His. In general terms: ELISA stands for enzyme-linked immunosorbent assay.
Assay [2] has as its target T1, human BCMA protein (Octet; construct not stated) (human, UniProt Q02223 1-54, limits assumed).
T1 sequence: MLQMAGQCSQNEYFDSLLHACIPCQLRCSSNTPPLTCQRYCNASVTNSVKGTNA
The assay can be described thus: Octet (BLI), scFv periplasmic extract, human BCMA captured on sensor tips. (BLI is a label-free optical method that tracks binding on a fibre tip over time.)

For assay [3], the target named is T2, hBCMA-mIgG2a (human; mouse, UniProt Q02223 1-54, limits assumed).
T2 construct: not shown: mouse IgG2a portion ('mIgG2a')
T2 sequence: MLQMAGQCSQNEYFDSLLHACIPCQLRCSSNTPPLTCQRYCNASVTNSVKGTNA
The assay can be described thus: Octet (BLI), hBCMA-mIgG2a captured on sensor tips.

For assay [4], the target named is T3, human BCMA on BCMA overexpressing CHO cells (human, UniProt Q02223 1-184).
T3 construct: also called hBCMA CHO; Hu BCMA (FACS)
T3 chain: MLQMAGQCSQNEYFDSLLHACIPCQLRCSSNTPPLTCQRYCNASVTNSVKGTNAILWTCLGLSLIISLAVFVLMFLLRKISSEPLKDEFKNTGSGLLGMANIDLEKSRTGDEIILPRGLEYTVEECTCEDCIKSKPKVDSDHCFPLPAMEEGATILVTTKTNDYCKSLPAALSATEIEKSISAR
The assay can be described thus: flow cytometry on human BCMA overexpressing CHO cells.

The target in assay [5] is T4, hBCMA-HIS antigen (human, UniProt Q02223 1-54).
T4 construct: It may be the same protein as Bio-huBCMA-His without, or with, biotin; also called human BCMA-6His; not shown: His tag
T4 sequence: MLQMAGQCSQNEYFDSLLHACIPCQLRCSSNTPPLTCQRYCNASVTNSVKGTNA
The assay can be described thus: Octet (BLI), hBCMA-HIS antigen captured on sensor tips.

Chain of Bio-cyBCMA-His (biotinylated cynomolgus BCMA with His tag) (cynomolgus) (chain, as listed by the source): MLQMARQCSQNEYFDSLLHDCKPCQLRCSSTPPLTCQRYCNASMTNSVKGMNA

B1: anti-BCMA scFv clone from phage display, first row of Table 3 (VH …..., VL with LCDR3 …) (scFv, V domains shown)
VH: QITLRESGGDVVQPGRSLRLSCAASGFTFSSYAIHWVRQAPGKGLEWVAVTWHDGSNKYYAESVMGRFTISRDNSKNTLYLHMNSLRAEDTGVYYCARAKFGEPQYFQHWGQGTLVTVSS
VL: DIVMTQSPSFLSASVGDRVTITCRASQGISSYLAWYQQKPGKAPKLLIYAASTLQSGVPSRFSGSGSGTEFTLTISSLQPEDFATYYCQQLNSYPWTFGQGTKVDIK
Take B1: the PE Elisa Bio-cyBCMA-His in assay [1] was found to be 0.147.

B2: anti-BCMA scFv clone from phage display, third row of Table 3 (VH …..., VL with LCDR3 …) (scFv, V domains shown)
VH: EVQLVESGGDVVQPGRSLRLSCAASGFTFSSYAIHWVRQAPGKGLEWVAVTWHDGSNKYYAESVMGRFTISRDNSKNTLYLHMNSLRAEDTGVYYCARAKFGEPQYFQHWGQGTTVTVSS
VL: DIVMTQSPSFLSASVGDRVTITCRASQGISSYLAWYQQKPGKAPKLLIYAASTLQSGVPSRFSGSGSGTEFTLTISSLQPEDFATYYCQQLNSYPFTFGPGTKVDIK
Regarding B2, in assay [1], the PE Elisa Bio-cyBCMA-His was 0.126.

B3: anti-BCMA scFv clone from phage display, second row of Table 3 (VH …..., VL with LCDR3 …) (scFv, V domains shown)
VH: QITLRESGGDVVQPGRSLRLSCAASGFTFSSYAIHWVRQAPGKGLEWVAVTWHDGSNKYYAESVMGRFTISRDNSKNTLYLHMNSLRAEDTGVYYCARAKFGEPQYFQHWGQGTLVTVSS
VL: DIVMTQSPSFLSASVGDRVTITCRASQGINNYLAWYQQKPGIAPKLLIYAASTLQSGVPSRFGGSGSGTEFTLTISSLQPEDFATYYCQQLKSYPFTFGPGTKVEIK
As to B3, in assay [1], the PE Elisa Bio-cyBCMA-His turned out to be 0.122.

B4: anti-BCMA scFv clone from phage display, first row of Table 3 (VH QITLRESGG..., VL with LCDR3 QQLNSYPWT) (scFv, V domains shown)
VH: QITLRESGGDVVQPGRSLRLSCAASGFTFSSYAIHWVRQAPGKGLEWVAVTWHDGSNKYYAESVMGRFTISRDNSKNTLYLHMNSLRAEDTGVYYCARAKFGEPQYFQHWGQGTLVTVSS
VL: DIVMTQSPSFLSASVGDRVTITCRASQGISSYLAWYQQKPGKAPKLLIYAASTLQSGVPSRFSGSGSGTEFTLTISSLQPEDFATYYCQQLNSYPWTFGQGTKVDIK
notes: Tested as scFv in periplasmic extract; also called Ab 1
For B4, in assay [2], the koff (usually the first-order rate constant of dissociation) was 0.000369 s⁻¹.

B5: Ab 2, lead anti-BCMA clone of Table 4 (antibody, V domains shown)
VH: QITLRESGGDVVQPGRSLRLSCAASGFTFSSYAIHWVRQAPGKGLEWVAVTWHDGSNKYYAESVMGRFTISRDNSKNTLYLHMNSLRAEDTGVYYCARAKFGEPQYFQHWGQGTLVTVSS
VL: DIVMTQSPSFLSASVGDRVTITCRASQGINNYLAWYQQKPGIAPKLLIYAASTLQSGVPSRFGGSGSGTEFTLTISSLQPEDFATYYCQQLKSYPFTFGPGTKVEIK
As for B5, in assay [3], binding was characterised by a dissociation constant (Kd) of 0.0117 nM; the koff stood at 4.44e-06 s⁻¹; the kon (in general, a measure of how fast the partners come together) came to 379000 M⁻¹ s⁻¹. In addition, the EC50 (usually the concentration at which the effect is half-maximal) in assay [4] was 0.144 µg/mL. In assay [5], binding was put at a Kd of 0.0788 nM, the dissociation rate constant (koff) turned out to be 3.77e-05 s⁻¹ and the on-rate (kon) came out at 479000 M⁻¹ s⁻¹.

B6: Ab 3, lead anti-BCMA clone of Table 4 (antibody, V domains shown)
VH: EVQLVESGGDVVQPGRSLRLSCAASGFTFSSYAIHWVRQAPGKGLEWVAVTWHDGSNKYYAESVMGRFTISRDNSKNTLYLHMNSLRAEDTGVYYCARAKFGEPQYFQHWGQGTTVTVSS
VL: DIVMTQSPSFLSASVGDRVTITCRASQGISSYLAWYQQKPGKAPKLLIYAASTLQSGVPSRFSGSGSGTEFTLTISSLQPEDFATYYCQQLNSYPFTFGPGTKVDIK
With B6, in assay [3], the dissociation constant (Kd) – broadly, a measure of binding affinity in units of concentration – is less than 0.001 nM; the off-rate constant (koff) is less than 1e-07 s⁻¹; the kon stood at 308000 M⁻¹ s⁻¹. This molecule also returned a 50% effective concentration (EC50) in assay [4] of 0.117 µg/mL. In assay [5], this molecule had a Kd of 0.0608 nM, a koff of 1.33e-05 s⁻¹ and a kon of 219000 M⁻¹ s⁻¹.
